Two substances from article PMC12326332 can be followed below.

Among the targets are GST-RNF38^RING-R454K (UniProt Q9H0F5); GST-RNF38^RING-R454T (UniProt Q9H0F5); GST-RNF38^RING-R454N (UniProt Q9H0F5); GST-RNF38^RING-R454F (UniProt Q9H0F5); GST-RNF38^RING-R454Q (UniProt Q9H0F5); GST-RNF38^RING-WT (UniProt Q9H0F5); GST-RNF38^RING-R454D (UniProt Q9H0F5); GST-RNF38^RING-R454M (UniProt Q9H0F5); GST-RNF38^RING-R454I (UniProt Q9H0F5); GST-RNF38^RING-R454Y (UniProt Q9H0F5); GST-RNF38^RING-R454H (UniProt Q9H0F5); GST-RNF38^RING-R454A (UniProt Q9H0F5); GST-RNF38^RING-R454G (UniProt Q9H0F5); GST-RNF38^RING-R454W (UniProt Q9H0F5); GST-RNF38^RING-R454P (UniProt Q9H0F5); GST-RNF38^RING-R454V (UniProt Q9H0F5); GST-RNF38^RING-R454L (UniProt Q9H0F5); GST-RNF38^RING-R454E (UniProt Q9H0F5); GST-RNF38^RING-R454S (UniProt Q9H0F5); GST-RNF38^RING-R454C (UniProt Q9H0F5).

What all share (assay): SPR; Biacore T200, CM-5 chip with coupled anti-GST nanobody; GST-tagged RNF38 LP variants captured, UBE2D2^S22R or UBE2D2^S22R,C85K–Ub as analyte; 25°C; 25 mM Tris–HCl pH 7.6, 150 mM NaCl, 1 mM DTT, 0.005% Tween-20; one-site binding model; two technical replicates
A general note: In SPR one partner is held on a chip, and binding of the other changes the refractive index at the surface.

pKd: −log10 of the molar value.

On to “UBE2D2^S22R,C85K–Ub (from UniProt P62837 2-147; P0CG48 1-76) (complex)”, for which the pKd (as a rule, the Kd on a negative log10 scale, so that one unit is a factor of ten) with GST-RNF38^RING-R454K is 4.52; with GST-RNF38^RING-R454T, 4.20; with GST-RNF38^RING-R454N, 3.97; in the test with GST-RNF38^RING-R454F, 4.34; with GST-RNF38^RING-R454Q, 4.53; with GST-RNF38^RING-WT, 5.60. The pKd with GST-RNF38^RING-R454D is 4.16; with GST-RNF38^RING-R454M, 4.51; with GST-RNF38^RING-R454I, 4.38; with GST-RNF38^RING-R454Y it was 4.62; with GST-RNF38^RING-R454H it was 4.25; with GST-RNF38^RING-R454A it was 4.22. Also, the pKd was 4.04 with GST-RNF38^RING-R454G; 4.61 with GST-RNF38^RING-R454W; 4.08 with GST-RNF38^RING-R454P; 4.27 with GST-RNF38^RING-R454V; 4.33 with GST-RNF38^RING-R454L; 3.95 with GST-RNF38^RING-R454E. The pKd in the test with GST-RNF38^RING-R454S is 4.23; in the test with GST-RNF38^RING-R454C it was 4.25.

“UBE2D2^S22R (from UniProt P62837 1-147) (enzyme)”: the pKd with GST-RNF38^RING-R454K is 3.88; with GST-RNF38^RING-R454T, 3.80; with GST-RNF38^RING-R454N, 3.21; in the test with GST-RNF38^RING-R454F, 3.76; in the test with GST-RNF38^RING-R454Q it was 4.00; in the test with GST-RNF38^RING-WT, 3.98. For the same substance, the pKd with GST-RNF38^RING-R454D is 3.57; in the test with GST-RNF38^RING-R454M it was 3.86; in the test with GST-RNF38^RING-R454I, 3.95; with GST-RNF38^RING-R454Y, 3.86; in the test with GST-RNF38^RING-R454H, 3.70; with GST-RNF38^RING-R454A it was 3.78. In addition, the pKd with GST-RNF38^RING-R454G is 3.41; with GST-RNF38^RING-R454W, 4.20; in the test with GST-RNF38^RING-R454P it was 3.61; in the test with GST-RNF38^RING-R454V it was 3.76; in the test with GST-RNF38^RING-R454L, 3.78; in the test with GST-RNF38^RING-R454E, 3.12. The pKd was 3.82 with GST-RNF38^RING-R454S and 3.68 in the test with GST-RNF38^RING-R454C.
